Measurements as given in EP3727588B1 (UNIVERSITA' DEGLI STUDI DI MILANO, dated 2019).

Assays:
[1] = biological target: AP2 clathrin adaptor complex (in COS7 cells); assay: cell-based or functional assay
[2] = biological target: T1, α-adaptin subunit of AP2 (rat) (rat, UniProt P58197); assay: co-IP with anti-ADAM10; rat primary hippocampal neurons, 1 µM, 30 min; competitor ADAM10 (Fig. 1D)
T1 construct: Detected by Western blot as a read-out of the whole AP2 complex

[3] = biological target: T1, α-adaptin subunit of AP2 (rat); assay: co-IP with anti-ADAM10, α-adaptin blot; rat acute hippocampal slices, 10 µM, 30 min; competitor ADAM10 (Fig. 1B)

T1 sequence (P58197 whole entry): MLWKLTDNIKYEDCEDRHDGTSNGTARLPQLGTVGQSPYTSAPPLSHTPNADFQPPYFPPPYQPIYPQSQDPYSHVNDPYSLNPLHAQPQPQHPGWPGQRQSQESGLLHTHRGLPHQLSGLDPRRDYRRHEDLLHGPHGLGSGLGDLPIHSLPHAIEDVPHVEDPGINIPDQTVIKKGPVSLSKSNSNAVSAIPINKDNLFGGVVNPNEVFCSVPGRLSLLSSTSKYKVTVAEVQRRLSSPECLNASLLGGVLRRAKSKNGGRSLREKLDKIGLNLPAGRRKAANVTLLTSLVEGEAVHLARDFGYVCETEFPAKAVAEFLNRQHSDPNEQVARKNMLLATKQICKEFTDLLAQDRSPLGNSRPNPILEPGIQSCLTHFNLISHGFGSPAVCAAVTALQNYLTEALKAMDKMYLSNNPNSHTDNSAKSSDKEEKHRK

| Binder | internalization index of TacADAM10-RAR (fluorescence-based antibody uptake, COS7 cells, 1 µM, 30 min) [1] [%] | PEP/inPEP ratio of α-adaptin co-immunoprecipitated with ADAM10 (OD) [2] [%] | PEP/inPEP ratio of α-adaptin co-immunoprecipitated with ADAM10 (OD) [3] [%] |
| --- | --- | --- | --- |
| YGRKKRRQRRRGGSGQPPRQRPRG [PEP3] | -12.8 | 10.8 | 37.4 |
| YGRKKRRQRRRGGSGQPPEQEPRG [inPEP3] | 1.3 |  |  |
| YGRKKRRQRRRGGSGLPPRQRPRL [PEP2] | -10.9 | 33.9 | 41.6 |
| YGRKKRRQRRRGGSGLPPEQEPRL [inPEP2] | -1.84 |  |  |
